The target of one assay is H3 (A/Brisbane/10/2007) (influenza A virus H3 …). Briefly: ELISA.
Another assay has as its target H1 (A/Cali/09/2007). Briefly: ELISA. (In general: ELISA stands for enzyme-linked immunosorbent assay.)

B1: VH 10 / VL 6 (antibody, V domains shown)
VH: QVQLVQSGAEVKKPGSSVKVSCKASGFTFSTYAIHWVRQAPGQGLEWMGVISYDANYKYYAQKFQGRVTITRDNSKSTAYMELSSLRSEDTAVYYCARDSRLRSLLYFEWLSQGYFDYWGQGTTLTVSS
VL: EIVMTQSPATLSVSPGERATLSCRSSQSITFDYKNYLAWYQQKPGQAPRLLIYWGSTRATGIPARFSGSGSGTEFTLTISSLQSEDFAVYYCQQHYRTPPSFGQGTKVEIK
As for B1, the EC50 (in general, the concentration that produces a half-maximal response) in the assay with H3 (A/Brisbane/10/2007) was determined as 0.0695 nM; with H1 (A/Cali/09/2007), 0.0175 nM.

B2: VH 10 / VL 4 (antibody, V domains shown)
VH: QVQLVQSGAEVKKPGSSVKVSCKASGFTFSTYAIHWVRQAPGQGLEWMGVISYDANYKYYAQKFQGRVTITRDNSKSTAYMELSSLRSEDTAVYYCARDSRLRSLLYFEWLSQGYFDYWGQGTTLTVSS
VL: DIVMTQSPDSLAVSLGERATINCKSSQSVTFDYKNYLAWYQQKPGQPPKLLIYWASTRESGVPDRFSGSGSGTDFTLTISSLQAEDVAVYYCQQHYRTPPSFGQGTKVEIK
As to B2, the figures for the EC50 with H3 (A/Brisbane/10/2007) and in the assay with H1 (A/Cali/09/2007) were 0.0241 nM and 0.0181 nM, respectively.

B3: VH 11 / VL 4 (antibody, V domains shown)
VH: QVQLVQSGAEVKKPGASVKVSCKASGFTFSTYAINWVRQATGQGLEWMGWISYDANYKYYAQKFQGRVTMTRDTSISTAYMELSSLRSEDTAVYYCAKDSQLRSLLYFEWLSQGYFDYWGQGTTLTVSS
VL: DIVMTQSPDSLAVSLGERATINCKSSQSVTFDYKNYLAWYQQKPGQPPKLLIYWASTRESGVPDRFSGSGSGTDFTLTISSLQAEDVAVYYCQQHYRTPPSFGQGTKVEIK
On to B3, for which the EC50 stood at 112 nM in the assay with H3 (A/Brisbane/10/2007) and 0.0244 nM with H1 (A/Cali/09/2007).

B4: VH 9 / VL 4 (antibody, V domains shown)
VH: QVQLVQSGAEVKKPGSSVKVSCKASGFTFSTYAIHWVRQAPGQGLEWMGVISYDANYKYYAQKFQGRVTITRDNSKSTAYMELSSLRSEDTAVYYCAKDSQLRSLLYFEWLSQGYFDYWGQGTTLTVSS
VL: DIVMTQSPDSLAVSLGERATINCKSSQSVTFDYKNYLAWYQQKPGQPPKLLIYWASTRESGVPDRFSGSGSGTDFTLTISSLQAEDVAVYYCQQHYRTPPSFGQGTKVEIK
Take B4: the EC50 with H3 (A/Brisbane/10/2007) is 0.0608 nM; in the assay with H1 (A/Cali/09/2007) it was 0.0186 nM.

B5: VH 8 / VL 3 (antibody, V domains shown)
VH: EVQLLESGGGLVQPGGSLRLSCAASGFTFSSYAMHWVRQAPGKGLEWVAVISYDANYKYYADSVKGRFTISRDNSKNTLYLQMNSLRAEDTAVYYCAKDSRLRSLLYFEWLSQGYFDYWGQGTLVTVSS
VL: DIQMTQSPSSLSASVGDRVTITCRSSQSITFDYKNYLAWYQQKPGKAPKLLIYAASSLQSGVPSRFSGSGSGTDFTLTISSLQPEDFATYYCQQHYRTPPSFGQGTKVEIK
For B5, the 50% effective concentration (EC50) with H3 (A/Brisbane/10/2007) worked out at 0.0286 nM; with H1 (A/Cali/09/2007), 0.0218 nM.

B6: VH 8 / VL 7 (antibody, V domains shown)
VH: EVQLLESGGGLVQPGGSLRLSCAASGFTFSSYAMHWVRQAPGKGLEWVAVISYDANYKYYADSVKGRFTISRDNSKNTLYLQMNSLRAEDTAVYYCAKDSRLRSLLYFEWLSQGYFDYWGQGTLVTVSS
VL: EIVMTQSPATLSVSPGERATLSCRSSQSITFDYKNYLAWYQQKPGQAPRLLIYSASTRATGIPARFSGSGSGTEFTLTISSLQSEDFAVYYCQQHYRTPPSFGQGTKVEIK
For the molecule B6, the EC50 with H3 (A/Brisbane/10/2007) amounted to 0.0356 nM; in the assay with H1 (A/Cali/09/2007), 0.0318 nM.

B7: VH 3 / VL 6 (antibody, V domains shown)
VH: QVQLVESGGGVVQPGRSLRLSCAASGFTFSTYAMHWVRQAPGKGLEWVAVISYDANYKYYADSVKGRFTISRDNSKNTLYLQMNSLRAEDTAVYYCAKDSQLRSLLYFEWLSQGYFDYWGQGTLVTVSS
VL: EIVMTQSPATLSVSPGERATLSCRSSQSITFDYKNYLAWYQQKPGQAPRLLIYWGSTRATGIPARFSGSGSGTEFTLTISSLQSEDFAVYYCQQHYRTPPSFGQGTKVEIK
As to B7, the EC50 with H3 (A/Brisbane/10/2007) was 0.0313 nM; with H1 (A/Cali/09/2007), 0.0268 nM.

B8: VH 10 / VL 2 (antibody, V domains shown)
VH: QVQLVQSGAEVKKPGSSVKVSCKASGFTFSTYAIHWVRQAPGQGLEWMGVISYDANYKYYAQKFQGRVTITRDNSKSTAYMELSSLRSEDTAVYYCARDSRLRSLLYFEWLSQGYFDYWGQGTTLTVSS
VL: DIQMTQSPSSLSASVGDRVTITCRSSQSITFDYKNYLAWYQQKPGKAPKLLIYWGSSLQSGVPSRFSGSGSGTDFTLTISSLQPEDFATYYCQQHYRTPPSFGQGTKVEIK
As for B8, the half-maximal effective concentration (EC50) in the assay with H3 (A/Brisbane/10/2007) is 0.0412 nM; with H1 (A/Cali/09/2007), 0.0227 nM.

B9: VH 5 / VL 6 (antibody, V domains shown)
VH: QVQLVESGGGVVQPGRSLRLSCAASGFTFSTYAMHWVRQAPGKGLEWVCVISYDANYKYYADSVKGRFTCSRDNSKNTLYLQMNSLRAEDTAVYYCARDSRLRSLLYFEWLSQGYFDYWGQGTLVTVSS
VL: EIVMTQSPATLSVSPGERATLSCRSSQSITFDYKNYLAWYQQKPGQAPRLLIYWGSTRATGIPARFSGSGSGTEFTLTISSLQSEDFAVYYCQQHYRTPPSFGQGTKVEIK
As to B9, the figures for the EC50 with H3 (A/Brisbane/10/2007) and with H1 (A/Cali/09/2007) were 0.0295 nM and 0.0317 nM, respectively.

B10: VH 7 / VL 6 (antibody, V domains shown)
VH: EVQLLESGGGLVQPGGSLRLSCAASGFTFSSYAMHWVRQAPGKGLEWVSVISYDANYKYYADSVKGRFTISRDNSKNTLYLQMNSLRAEDTAVYYCAKDSQLRSLLYFEWLSQGYFDYWGQGTTLTVSS
VL: EIVMTQSPATLSVSPGERATLSCRSSQSITFDYKNYLAWYQQKPGQAPRLLIYWGSTRATGIPARFSGSGSGTEFTLTISSLQSEDFAVYYCQQHYRTPPSFGQGTKVEIK
For B10, the EC50 in the assay with H3 (A/Brisbane/10/2007) is 0.274 nM; in the assay with H1 (A/Cali/09/2007) it was 0.0239 nM.

B11: VH 5 / VL 2 (antibody, V domains shown)
VH: QVQLVESGGGVVQPGRSLRLSCAASGFTFSTYAMHWVRQAPGKGLEWVCVISYDANYKYYADSVKGRFTCSRDNSKNTLYLQMNSLRAEDTAVYYCARDSRLRSLLYFEWLSQGYFDYWGQGTLVTVSS
VL: DIQMTQSPSSLSASVGDRVTITCRSSQSITFDYKNYLAWYQQKPGKAPKLLIYWGSSLQSGVPSRFSGSGSGTDFTLTISSLQPEDFATYYCQQHYRTPPSFGQGTKVEIK
Take B11: the EC50 with H3 (A/Brisbane/10/2007) was 0.0219 nM; in the assay with H1 (A/Cali/09/2007), 0.0231 nM.

B12: VH 12 / VL 2 (antibody, V domains shown)
VH: QVQLVQSGAEVKKPGASVKVSCKASGFTFSTYAINWVRQATGQGLEWMGVISYDANYKYYAQKFQGRVTMTRDTSISTAYMELSSLRSEDTAVYYCARDSQLRSLLYFEWLSQGYFDYWGQGTTLTVSS
VL: DIQMTQSPSSLSASVGDRVTITCRSSQSITFDYKNYLAWYQQKPGKAPKLLIYWGSSLQSGVPSRFSGSGSGTDFTLTISSLQPEDFATYYCQQHYRTPPSFGQGTKVEIK
On to B12, for which the EC50 in the assay with H3 (A/Brisbane/10/2007) came to 88.9 nM; with H1 (A/Cali/09/2007), 0.0161 nM.

B13: VH 6 / VL 2 (antibody, V domains shown)
VH: QVQLVESGGGVVQPGRSLRLSCAASGFTFDTYAMHWVRQAPGKGLEWVAVISYDANYKYYADSVKGRFTISRDNSKNTLYLQMNSLRAEDTAVYYCARDSRLRSLLYFEWLSQGYFDYWGQGTLVTVSS
VL: DIQMTQSPSSLSASVGDRVTITCRSSQSITFDYKNYLAWYQQKPGKAPKLLIYWGSSLQSGVPSRFSGSGSGTDFTLTISSLQPEDFATYYCQQHYRTPPSFGQGTKVEIK
For the molecule B13, the EC50 with H3 (A/Brisbane/10/2007) turned out to be 0.108 nM; in the assay with H1 (A/Cali/09/2007), 0.0207 nM.

B14: VH 3 / VL 3 (antibody, V domains shown)
VH: QVQLVESGGGVVQPGRSLRLSCAASGFTFSTYAMHWVRQAPGKGLEWVAVISYDANYKYYADSVKGRFTISRDNSKNTLYLQMNSLRAEDTAVYYCAKDSQLRSLLYFEWLSQGYFDYWGQGTLVTVSS
VL: DIQMTQSPSSLSASVGDRVTITCRSSQSITFDYKNYLAWYQQKPGKAPKLLIYAASSLQSGVPSRFSGSGSGTDFTLTISSLQPEDFATYYCQQHYRTPPSFGQGTKVEIK
Regarding B14, the concentration for a half-maximal effect (EC50) was 0.0386 nM with H3 (A/Brisbane/10/2007) and 0.0246 nM in the assay with H1 (A/Cali/09/2007).

B15: VH 5 / VL 4 (antibody, V domains shown)
VH: QVQLVESGGGVVQPGRSLRLSCAASGFTFSTYAMHWVRQAPGKGLEWVCVISYDANYKYYADSVKGRFTCSRDNSKNTLYLQMNSLRAEDTAVYYCARDSRLRSLLYFEWLSQGYFDYWGQGTLVTVSS
VL: DIVMTQSPDSLAVSLGERATINCKSSQSVTFDYKNYLAWYQQKPGQPPKLLIYWASTRESGVPDRFSGSGSGTDFTLTISSLQAEDVAVYYCQQHYRTPPSFGQGTKVEIK
On to B15, for which the values for the EC50 with H3 (A/Brisbane/10/2007) and with H1 (A/Cali/09/2007) were 0.0268 nM and 0.0285 nM, respectively.

B16: VH 8 / VL 6 (antibody, V domains shown)
VH: EVQLLESGGGLVQPGGSLRLSCAASGFTFSSYAMHWVRQAPGKGLEWVAVISYDANYKYYADSVKGRFTISRDNSKNTLYLQMNSLRAEDTAVYYCAKDSRLRSLLYFEWLSQGYFDYWGQGTLVTVSS
VL: EIVMTQSPATLSVSPGERATLSCRSSQSITFDYKNYLAWYQQKPGQAPRLLIYWGSTRATGIPARFSGSGSGTEFTLTISSLQSEDFAVYYCQQHYRTPPSFGQGTKVEIK
Take B16: the values for the EC50 with H3 (A/Brisbane/10/2007) and in the assay with H1 (A/Cali/09/2007) were 0.0261 nM and 0.0269 nM, respectively.

B17: VH 3 / VL 2 (antibody, V domains shown)
VH: QVQLVESGGGVVQPGRSLRLSCAASGFTFSTYAMHWVRQAPGKGLEWVAVISYDANYKYYADSVKGRFTISRDNSKNTLYLQMNSLRAEDTAVYYCAKDSQLRSLLYFEWLSQGYFDYWGQGTLVTVSS
VL: DIQMTQSPSSLSASVGDRVTITCRSSQSITFDYKNYLAWYQQKPGKAPKLLIYWGSSLQSGVPSRFSGSGSGTDFTLTISSLQPEDFATYYCQQHYRTPPSFGQGTKVEIK
With B17, the EC50 in the assay with H3 (A/Brisbane/10/2007) amounted to 0.0313 nM; with H1 (A/Cali/09/2007), 0.019 nM.

For the origin of these results see patent publication US20230257449A1 (published 2023).
